The text below walks through data of PMC3032713.

This experiment deals with RBSDV P9-1 as used in vitro (data not shown) (Rice black-streaked dwarf virus). Description: not stated; P9-1 dimers in vitro; data not shown.

As usually defined, the stoichiometry N is the number of molecules, sites or subunits per partner or assembly. Consider “RBSDV P9-1 as used in vitro (data not shown) (natural protein)”, for which the stoichiometry N was found to be 2.
